Each block holds one binder with its values, some of them ahead of it.
Assays:
[1] = target: T1, C-terminal domain of Pat1 (Pat1C), wild type (S. cerevisiae, UniProt P25644 422-796); experiment: crystal structure
T1 sequence: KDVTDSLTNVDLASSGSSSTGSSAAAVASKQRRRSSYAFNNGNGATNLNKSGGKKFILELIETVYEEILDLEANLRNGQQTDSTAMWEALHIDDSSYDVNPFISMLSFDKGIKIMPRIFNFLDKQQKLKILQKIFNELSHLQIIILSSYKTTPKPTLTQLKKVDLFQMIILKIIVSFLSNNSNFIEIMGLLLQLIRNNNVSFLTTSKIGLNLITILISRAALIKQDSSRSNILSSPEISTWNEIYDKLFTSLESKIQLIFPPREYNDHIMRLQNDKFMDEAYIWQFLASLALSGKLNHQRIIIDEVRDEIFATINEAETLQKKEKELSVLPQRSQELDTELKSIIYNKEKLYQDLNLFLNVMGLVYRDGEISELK

[2] = target: T1, C-terminal domain of Pat1 (Pat1C), wild …; experiment: native gel or EMSA

binding result [1]: binds
B1: Lsm2 (natural protein)
chain: MLFFSFFKTLVDQEVVVELKNDIEIKGTLQSVDQFLNLKLDNISCTDEKKYPHLGSVRNIFIRGSTVRYVYLNKNMVDTNLLQDATRREVMTERK

binding result [2]: binds
B2: Lsm2-3 subcomplex, wild type (complex)
chain 1: B1 chain
chain 2: METPLDLLKLNLDERVYIKLRGARTLVGTLQAFDSHCNIVLSDAVETIYQLNNEELSESERRCEMVFIRGDTVTLISTPSEDDDGAVEI

Reference: publication PMC3915908 (Cell Research, 2013)
